From article PMC4717663 (2014) come the findings set out here.

For the test, the target named is pro-TGF-β1 (Homo sapiens, UniProt P01137).
Sequence of pro-TGF-β1 (P01137 30-278, chain 1 of 2): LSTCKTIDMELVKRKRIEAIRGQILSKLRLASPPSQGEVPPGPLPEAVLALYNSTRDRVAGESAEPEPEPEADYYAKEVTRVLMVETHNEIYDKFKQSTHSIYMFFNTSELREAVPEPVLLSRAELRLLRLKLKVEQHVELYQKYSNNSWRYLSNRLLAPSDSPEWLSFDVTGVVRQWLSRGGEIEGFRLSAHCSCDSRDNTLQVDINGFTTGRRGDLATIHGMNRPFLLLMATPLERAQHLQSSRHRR
Sequence of pro-TGF-β1 (P01137 279-390, chain 2 of 2): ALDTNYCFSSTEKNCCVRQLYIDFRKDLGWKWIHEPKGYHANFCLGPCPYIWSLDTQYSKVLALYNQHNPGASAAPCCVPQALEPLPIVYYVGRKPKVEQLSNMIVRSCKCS

B1: integrin αVβ6 (protein)
chain 1: FNLDVDSPAEYSGPEGSYFGFAVDFFVPSASSRMFLLVGAPKANTTQPGIVEGGQVLKCDWSSTRRCQPIEFDATGNRDYAKDDPLEFKSHQWFGASVRSKQDKILACAPLYHWRTEMKQEREPVGTCFLQDGTKTVEYAPCRSQDIDADGQGFCQGGFSIDFTKADRVLLGGPGSFYWQGQLISDQVAEIVSKYDPNVYSIKYNNQLATRTAQAIFDDSYLGYSVAVGDFNGDGIDDFVSGVPRAARTLGMVYIYDGKNMSSLYNFTGEQMAAYFGFSVAATDINGDDYADVFIGAPLFMDRGSDGKLQEVGQVSVSLQRASGDFQTTKLNGFEVFARFGSAIAPLGDLDQDGFNDIAIAAPYGGEDKKGIVYIFNGRSTGLNAVPSQILEGQWAARSMPPSFGYSMKGATDIDKNGYPDLIVGAFGVDRAILYRARPVITVNAGLEVYPSILNQDNKTCSLPGTALKVSCFNVRFCLKADGKGVLPRKLNFQVELLLDKLKQKGAIRRALFLYSRSPSHSKNMTISRGGLMQCEELIAYLRDESEFRDKLTPITIFMEYRLDYRTAADTTGLQPILNQFTPANISRQAHILLDCGEDNVCKPKLEVSVDSDQKKIYIGDDNPLTLIVKAQNQGEGAYEAELIVSIPLQADFIGVVRNNEALARLSCAFKTENQTRQVVCDLGNPMKAGTQLLAGLRFSVHQQSEMDTSVKFDLQIQSSNLFDKVSPVVSHKVDLAVLAAVEIRGVSSPDHVFLPIPNWEHKENPETEEDVGPVVQHIYELRNNGPSSFSKAMLHLQWPYKYNNNTLLYILHYDIDGPMNCTSDMEINPLRIKISSLQTTEKNDTVAGQGERDHLITKRDLALSEGDIHTLGCGVAQCLKIVCQVGRLDRGKSAILYVKSLLWTETFMNKENQNHSYSLKSSASFNVIEFPYKNLPIEDITNSTLVTTNVTWGIQPAPMPV
chain 2: GCALGGAETCEDCLLIGPQCAWCAQENFTHPSGVGERCDTPANLLAKGCQLNFIENPVSQVEILKNKPLSVGRQKNSSDIVQIAPQSLILKLRPGGAQTLQVHVRQTEDYPVDLYYLMDLSASMDDDLNTIKELGSRLSKEMSKLTSNFRLGFGSFVEKPVSPFVKTTPEEIANPCSSIPYFCLPTFGFKHILPLTNDAERFNEIVKNQKISANIDTPEGGFDAIMQAAVCKEKIGWRNDSLHLLVFVSDADSHFGMDSKLAGIVIPNDGLCHLDSKNEYSMSTVLEYPTIGQLIDKLVQNNVLLIFAVTQEQVHLYENYAKLIPGATVGLLQKDSGNILQLIISAYEELRSEVELEVLGDTEGLNLSFTAICNNGTLFQHQKKCSHMKVGDTASFSVTVNIPHCERRSRHIIIKPVGLGDALELLVSPECNCDCQKEVEVNSSKCHHGNGSFQCGVCACHPGHMGPRCECGEDMLSTDSCKEAPDHPSCSGRGDCYCGQCICHLSPYGNIYGPYCQCDNFSCVRHKGLLCGGNGDCDCGECVCRSGWTGEYCNCTTSTDSCVSEDGVLCSGRGDCVCGKCVCTNPGASGPTCERCPTCGDPCNSKRSCIECHLSAAGQAREECVDKCKLAGATISEEEDFSKDGSVSCSLQGENECLITFLITTDNEGKTIIHSINEKDCPKPPNIP
What is called Kd is a measure of binding affinity in units of concentration. Lower therefore signals higher affinity. For the molecule B1, the dissociation constant (Kd) is about 10 nM.
